Substrate in the data set: N[C@@H](CC(=O)O)C(=O)O
Briefly: Spectrophotometric aspartase assay, deamination of L-aspartic acid to fumarate (240 nm). The data set is classed as biochemical, Escherichia coli. To be noted: 30 mM Hepes pH 7.0, 10 mM magnesium acetate, 30° C. As to the method: Catalytic activity was determined spectrophotometrically by measuring the formation of fumarate at 240 nm (E240 =2.53 mM^-1 cm^-1) produced by the enzyme-catalyzed deamination of aspartic acid. A standard assay mix contained 30 mM Hepes buffer, pH 7.0, 10 mM magnesium acetate, and varying concentrations of L-aspartic acid at 30° C.

B1: E. coli aspartase truncated variant R471stop, residues 1-470 of SEQ ID NO: 1 (Escherichia coli K-12) (protein)
chain: MSNNIRIEEDLLGTREVPADAYYGVHTLRAIENFYISNNKISDIPEFVRGMVMVKKAAAMANKELQTIPKSVANAIIAACDEVLNNGKCMDQFPVDVYQGGAGTSVNMNTNEVLANIGLELMGHQKGEYQYLNPNDHVNKCQSTNDAYPTGFRIAVYSSLIKLVDAINQLREGFERKAVEFQDILKMGRTQLQDAVPMTLGQEFRAFSILLKEEVKNIQRTAELLLEVNLGATAIGTGLNTPKEYSPLAVKKLAEVTGFPCVPAEDLIEATSDCGAYVMVHGALKRLAVKMSKICNDLRLLSSGPRAGLNEINLPELQAGSSIMPAKVNPVVPEVVNQVCFKVIGNDTTVTMAAEAGQLQLNVMEPVIGQAMFESVHILTNACYNLLEKCINGITANKEVCEGYVYNSIGIVTYLNPFIGHHNGDIVGKICAETGKSVREVVLERGLLTEAELDDIFSVQNLMHPAYKAK
notes: made in house; host or cells: E. coli overproducing strain
As for B1, under “other: R471stop”, the Km stood at 4.5 mM, the kcat amounted to 1.18 ± 0.0483 s⁻¹ and the kcat/Km turned out to be 262 M⁻¹ s⁻¹.

B2: E. coli aspartase truncated variant A469stop, residues 1-468 of SEQ ID NO: 1 (Escherichia coli K-12) (protein)
chain: MSNNIRIEEDLLGTREVPADAYYGVHTLRAIENFYISNNKISDIPEFVRGMVMVKKAAAMANKELQTIPKSVANAIIAACDEVLNNGKCMDQFPVDVYQGGAGTSVNMNTNEVLANIGLELMGHQKGEYQYLNPNDHVNKCQSTNDAYPTGFRIAVYSSLIKLVDAINQLREGFERKAVEFQDILKMGRTQLQDAVPMTLGQEFRAFSILLKEEVKNIQRTAELLLEVNLGATAIGTGLNTPKEYSPLAVKKLAEVTGFPCVPAEDLIEATSDCGAYVMVHGALKRLAVKMSKICNDLRLLSSGPRAGLNEINLPELQAGSSIMPAKVNPVVPEVVNQVCFKVIGNDTTVTMAAEAGQLQLNVMEPVIGQAMFESVHILTNACYNLLEKCINGITANKEVCEGYVYNSIGIVTYLNPFIGHHNGDIVGKICAETGKSVREVVLERGLLTEAELDDIFSVQNLMHPAYK
notes: as for B1
B2: for the setting “other: A469stop”, the Km is 10.2 mM, the kcat was found to be 0.66 ± 0.0167 s⁻¹ and the catalytic efficiency (kcat/Km) was 65 M⁻¹ s⁻¹.

B3: E. coli aspartase truncated variant Y467stop (stop codon at position 467) (Escherichia coli K-12; E32V) (protein)
chain: MSNNIRIEEDLLGTREVPADAYYGVHTLRAIVNFYISNNKISDIPEFVRGMVMVKKAAAMANKELQTIPKSVANAIIAACDEVLNNGKCMDQFPVDVYQGGAGTSVNMNTNEVLANIGLELMGHQKGEYQYLNPNDHVNKCQSTNDAYPTGFRIAVYSSLIKLVDAINQLREGFERKAVEFQDILKMGRTQLQDAVPMTLGQEFRAFSILLKEEVKNIQRTAELLLEVNLGATAIGTGLNTPKEYSPLAVKKLAEVTGFPCVPAEDLIEATSDCGAYVMVHGALKRLAVKMSKICNDLRLLSSGPRAGLNEINLPELQAGSSIMPAKVNPVVPEVVNQVCFKVIGNDTTVTMAAEAGQLQLNVMEPVIGQAMFESVHILTNACYNLLEKCINGITANKEVCEGYVYNSIGIVTYLNPFIGHHNGDIVGKICAETGKSVREVVLERGLLTEAELDDIFSVQNLMHPA
notes: made in house; host or cells: E. coli (aspA in pTZ18R)
In the case of B3, for the setting “other: Y467stop”, the Km was determined as 31 mM, the kcat was 0.0417 ± 0.013 s⁻¹ and the kcat/Km is 1.33 M⁻¹ s⁻¹.

B4: E. coli aspartase (L-aspartate ammonia-lyase, E.C. 4.3.1.1), wild-type, SEQ ID NO: 1 (Escherichia coli K-12) (protein)
chain: MSNNIRIEEDLLGTREVPADAYYGVHTLRAIENFYISNNKISDIPEFVRGMVMVKKAAAMANKELQTIPKSVANAIIAACDEVLNNGKCMDQFPVDVYQGGAGTSVNMNTNEVLANIGLELMGHQKGEYQYLNPNDHVNKCQSTNDAYPTGFRIAVYSSLIKLVDAINQLREGFERKAVEFQDILKMGRTQLQDAVPMTLGQEFRAFSILLKEEVKNIQRTAELLLEVNLGATAIGTGLNTPKEYSPLAVKKLAEVTGFPCVPAEDLIEATSDCGAYVMVHGALKRLAVKMSKICNDLRLLSSGPRAGLNEINLPELQAGSSIMPAKVNPVVPEVVNQVCFKVIGNDTTVTMAAEAGQLQLNVMEPVIGQAMFESVHILTNACYNLLEKCINGITANKEVCEGYVYNSIGIVTYLNPFIGHHNGDIVGKICAETGKSVREVVLERGLLTEAELDDIFSVQNLMHPAYKAKRYTDESEQ
notes: made in house; host or cells: E. coli overproducing strain (aspA in pTZ18R)
On to B4, for which the Km (other: wild-type) worked out at 1.8 mM.

B5: E. coli aspartase truncated variant D474stop, residues 1-473 of SEQ ID NO: 1 (Escherichia coli K-12) (protein)
chain: MSNNIRIEEDLLGTREVPADAYYGVHTLRAIENFYISNNKISDIPEFVRGMVMVKKAAAMANKELQTIPKSVANAIIAACDEVLNNGKCMDQFPVDVYQGGAGTSVNMNTNEVLANIGLELMGHQKGEYQYLNPNDHVNKCQSTNDAYPTGFRIAVYSSLIKLVDAINQLREGFERKAVEFQDILKMGRTQLQDAVPMTLGQEFRAFSILLKEEVKNIQRTAELLLEVNLGATAIGTGLNTPKEYSPLAVKKLAEVTGFPCVPAEDLIEATSDCGAYVMVHGALKRLAVKMSKICNDLRLLSSGPRAGLNEINLPELQAGSSIMPAKVNPVVPEVVNQVCFKVIGNDTTVTMAAEAGQLQLNVMEPVIGQAMFESVHILTNACYNLLEKCINGITANKEVCEGYVYNSIGIVTYLNPFIGHHNGDIVGKICAETGKSVREVVLERGLLTEAELDDIFSVQNLMHPAYKAKRYT
notes: as for B1
For B5, for the setting “other: D474stop”, the Km was determined as 2.8 mM, the kcat was found to be 0.712 ± 0.127 s⁻¹ and the kcat/Km is 255 M⁻¹ s⁻¹.

B6: E. coli aspartase truncated variant Y472stop, residues 1-471 of SEQ ID NO: 1 (Escherichia coli K-12) (protein)
chain: MSNNIRIEEDLLGTREVPADAYYGVHTLRAIENFYISNNKISDIPEFVRGMVMVKKAAAMANKELQTIPKSVANAIIAACDEVLNNGKCMDQFPVDVYQGGAGTSVNMNTNEVLANIGLELMGHQKGEYQYLNPNDHVNKCQSTNDAYPTGFRIAVYSSLIKLVDAINQLREGFERKAVEFQDILKMGRTQLQDAVPMTLGQEFRAFSILLKEEVKNIQRTAELLLEVNLGATAIGTGLNTPKEYSPLAVKKLAEVTGFPCVPAEDLIEATSDCGAYVMVHGALKRLAVKMSKICNDLRLLSSGPRAGLNEINLPELQAGSSIMPAKVNPVVPEVVNQVCFKVIGNDTTVTMAAEAGQLQLNVMEPVIGQAMFESVHILTNACYNLLEKCINGITANKEVCEGYVYNSIGIVTYLNPFIGHHNGDIVGKICAETGKSVREVVLERGLLTEAELDDIFSVQNLMHPAYKAKR
notes: as for B1
Turning to B6, under “other: Y472stop”, the Km stood at 3.3 mM, the kcat turned out to be 1.62 ± 0.102 s⁻¹ and the kcat/Km came out at 492 M⁻¹ s⁻¹.

The record behind these values is patent US6133013A, “Truncated aspartase enzyme derivatives and uses thereof” (The University of Akron, priority 1999, dated 2000).
